Measured values from patent US20150004190A1.
Several values for one entry are separate records, joined by “and”; a condition that tells them apart may be missing. Equal values may be shown once. Read-outs that look alike come from different tables or passages of the source.

Assays:
[1] = biological target: P1-PE (HIV-1 clade B HXB2) (UniProt P04578)
[2] = biological target: P1 (aa 630-685) clade B HXB2 HIV-1 (HIV-1 clade B HXB2) (UniProt P04578); assay: ELISA, P1 without lipid, nonlinear regression
[3] = biological target: P1-PE (HIV-1 clade B HXB2) (UniProt P04578); assay: ELISA, P1-PE in raft liposomes R1 (P1:lipids 1 for 100), nonlinear regression
[4] = biological target: P1-PE (HIV-1 clade B HXB2) (UniProt P04578); assay: ELISA, P1-PE in viral liposomes V1 (P1:lipids 1 for 100), nonlinear regression
[5] = biological target: P1-PE (HIV-1 clade B HXB2) (UniProt P04578); assay: ELISA, P1-PE in raft liposomes R2 (P1:lipids 1 for 20), nonlinear regression
[6] = biological target: P1 (aa 630-685) clade B HXB2 HIV-1 (HIV-1 clade B HXB2) (UniProt P04578); assay: ELISA on coated peptide (FIG. 1)
[7] = biological target: P1-PE (HIV-1 clade B HXB2) (UniProt P04578); assay: ELISA, P1-PE in viral liposomes V2 (P1:lipids 1 for 20), nonlinear regression

Substance | Kd [1] | Kd [2] | Kd [3] | Kd [4] | Kd [5] | antibody concentration of equivalent binding activity [6] | Kd [7]
2F5 IgG1 (antibody) | 1.33 nM and 0.69 nM | 7.38 nM | 0.5 nM | 0.31 nM | 0.51 nM | 6.25 nM | 0.41 nM
2F5 IgA2 (antibody) | 0.15 nM and 0.21 nM | 0.2 nM | 0.05 nM | 0.024 nM | 0.061 nM | 0.05 nM | 0.024 nM
